One may read the EC50 as the midpoint of the concentration-response curve.

For the assay, the target named is recombinant human C2. Briefly: ECL_MSD. The settings on record: pH 6.0; 0.2 mol/L citric acid, 0.2 mol/L sodium citrate; 150 mmol/L NaCl.

Regarding ARGX-117, the half-maximal effective concentration (EC50) was 32.2 µg/mL.

(Values after paper PMC7485568.)
